Test results reported in US20260069727A1, “FORMULATIONS FOR RADIOTHERAPY AND DIAGNOSTIC IMAGING AND USE THEREOF IN TREATMENT, DIAGNOSIS AND IMAGING DISEASES” (priority 2022, published 2026).
“Also recorded” adds a separate entry of the source.

What was measured:
[1] = cited from earlier work
[2] = Radiochemical purity / stability of the formulation by radioHPLC; type: physicochemical
Excerpt: The stability of the formulation relates to the stability of the complex, where the radioisotope may undergo dissociation or the complex may undergo radiolysis. The stability of the complex can be measured by considering the radiochemical purity of the formulation. Radiochemical purity is defined as the amount of the radioisotope complexed by the sarcophagine ligand expressed as a percentage of the total amount of the radioisotope present in the formulation. The radioisotope may be present in the formulation as a complex with the sarcophagine ligand, as a free radioisotope or as part of a radiolysis product. […] In the embodiments, described herein, radiochemical purity may be determined by techniques such as radioHPLC, where the amount of the radioisotope in either its complexed or free form is determined and compared with the amount of the radioisotope introduced to the formulation. A person skilled in the art would understand the necessary conditions for separation, analysis and quantification of the formulation by radioHPLC. Nonetheless, in certain embodiments, the mobile phase used to analyse a formulation as disclosed herein by radioHPLC comprises about 0.1% trifluoroacetic acid (TFA) in water. […]
Product stability was monitored up to 96 hours post End of Synthesis (EOS) for 3 validation batches of [^67Cu]Formula(Ib) in an aqueous formulation prepared as outlined above. […]

[3] = Free 67Cu in the formulation by radioTLC; type: physicochemical; settings: batch QC result; acceptance ≤5%
Excerpt: The stability of the complex can also be measured by considering the amount of free copper, i.e. free copper radioisotope that is intended to be complexed with the sarcophagine ligand, present in the formulation. In certain embodiments, the amount of free copper radioisotope present in formulation is not more than about 5%. In other embodiments, the amount of free copper radioisotope present in the formulation is not more than about 4%. In other embodiments, the amount of free copper present in the formulation is not more than about 3%. In other embodiments, the amount of free copper present in the formulation is not more than about 2%. In other embodiments, the amount of free copper present in the formulation is not more than about 1%. In other embodiments, the amount of free ^67Cu present in the formulation is less than about 1%. In other embodiments, the amount of free ^67Cu present in the formulation is less than about 2%.
TLC was performed with a mobile phase of 10 mM NaEDTA in 50 mM phosphate buffer using a silica gel 60 F254 aluminium backed TLC plate with dimensions of 1 cm×10 cm.

[4] = pH by probe (quality control); type: physicochemical; settings: batch QC result; acceptance 4.0-8.0
[5] = Appearance / visible particles in injection (quality control); type: physicochemical; settings: batch QC result

Row | SMILES | pKa (acid dissociation constant) [1] | Radiochemical purity by radio-HPLC ([2]; batch QC result, acceptance ≥90%) [%] | radiochemical purity (RPC) over the stability test ([2]; up to 96 hours post End of Synthesis, 3 validation batches) [%] | Free [67Cu]Cu2+ by TLC [3] [%] | pH by probe [4] | Appearance/Visible particles in injection [5]
1 | O=C(O)c1cc(O)ccc1O [gentisic acid, 2,5-dihydroxybenzoic acid] | about 2.5 | – | – | – | – | –
2 | CC(C)CC(NC(=O)CC(O)C(CC(C)C)NC(=O)C(Cc1c[nH]cn1)NC(=O)CNC(=O)C(NC(=O)C(C)NC(=O)C(Cc1c[nH]c2ccccc12)NC(=O)C(CCC(N)=O)NC(=O)C(Cc1ccccc1)NC(=O)CCOCCNC(=O)CCCC(=O)NC12CNCCNCC(C)(CNCCNC1)CNCCNC2)C(C)C)C(N)=O (stereo not drawn) [[^67Cu]Formula (Ib), metal not drawn] | – | 94.23 | ≥ 94.0 | 0 | 6.72 | Clear ✓; also recorded: Particle-free ✓
